From the supplement of paper PMC7125110
± gives the standard error. This sample holds only a part of the variants without activity.

B1: glmS ribozyme (parent)
chain: AUAAAAGCGCCAGAACUACAGAAAUGUAGUUGACGAGGAGGAGGUUUAUCGAAUUUUCGGCGGAUGCCUCCAAA

Variants of: B1
Experiment: self-cleavage kobs at 2500 uM GlcN6P; higher = faster cleavage; RNA array
Conditions: with glucosamine-6-phosphate
Method in brief: (§1)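 E. coli RNA polymerase transcribed barcoded ribozyme variants in situ on sequenced MiSeq chips, which were tracked via a hybridised Cy3 probe at 37 °C. Tiles were imaged over ~14 h after glucosamine-6-phosphate (40 μM to 10 mM) in HEPES/KCl/Mg(OAc)2 buffer was flowed in. Normalised per-tile medians were fit to one- or two-exponential decays for kobs, and kcat and KM came from weighted Michaelis–Menten fits.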

Variant | self-cleavage kobs at 2500 uM GlcN6P [s⁻¹]
C16A G37C U55C | < 1e-05
C34A U49G | < 1e-05
C11U C34G U54C | < 1e-05
A12C A14U U31C U56G | 0.0134 ± 0.0063
A15G G38U A52U | < 1e-05
A15U G44A G51A A53U | < 1e-05
C11A G32A G43C U46A C50A G60A | < 1e-05
C16A G37U G41A | < 1e-05
G13U A36G G60A C61U | < 1e-05
C16U G29U C70G C71A | 7.2e-05 ± 1.7e-05
G13U A42C U47C U57C | < 1e-05
C11U G60A G62U C67G | < 1e-05
U30C U55A U69G | 7.73e-05 ± 1.4e-05
A12C C16U U31G G41U G43U | < 1e-05
U31G U54A C68U | 0.000161 ± 5.7e-05
A52U C61G C67U | 8.45e-05 ± 3e-05
A6G C16G U54C C61A | < 1e-05
G32C U65G C68G | < 1e-05
A15U A48G G51U | < 1e-05
C34U U54G G63U | < 1e-05
A33U G37A U55A C61U | < 1e-05
A33C C34A G62U C71U | < 1e-05
C8G A36G G38A A52G U65G U69G | 5.4e-05 ± 1.8e-05
A52U U56A C58G | < 1e-05
C8A C16U A33U C68U | < 1e-05
G13C U31G A36G U46A C70G | < 1e-05
A6G G13C U65A U69C | < 1e-05

Variant | self-cleavage kobs at 2500 uM GlcN6P [s⁻¹]
G37A C50G U54C | 0.000123 ± 4.8e-05
A12G G21U U47G U65A | 6.16e-05 ± 1.7e-05
G32C C58U U65G | < 1e-05
G35A A42G U45G | < 1e-05
G44U U49C C61A | < 1e-05
A14G A15U U46C | 0.00169 ± 0.00048
A15C U30A U31C A48U | 7.36e-05 ± 3e-05
A42G A52G C67A | 0.000326 ± 8.1e-05
A33G G35A G44U G59C C70U | < 1e-05
C10G U46G U55A A64C U69G | < 1e-05
A64G U65C | 8.88e-05 ± 2.5e-05
G13U A14G U47C | 8e-05 ± 2.7e-05
C34G G35C G66A | < 1e-05
A12U A48U G51C G60U | < 1e-05
U45A U46A | 0.0043 ± 0.0021
A6G A42U A48C U54C U69A | < 1e-05
G37U U49G U57C | < 1e-05
G35C A42U U55A C58G | < 1e-05
C8U G37U G62U A64U | < 1e-05
U47A U55C U69C | 0.000127 ± 4.1e-05
G13C A15U G41U A42G G43C | < 1e-05
C11A U56A C67G | 5.5e-05 ± 1.8e-05
G7C U30G G32U A64G | < 1e-05
A6U G41U G59A G62C | < 1e-05
G32C A36C G51C A53C G66A | < 1e-05
A14U G40C G66C | 9.83e-05 ± 2.2e-05
C11A U54A U55G | 0.000135 ± 4.1e-05

Variant | self-cleavage kobs at 2500 uM GlcN6P [s⁻¹]
U45G A52U G63C | < 1e-05
A39U G60A U65G | < 1e-05
A33G G44A U49G | < 1e-05
G29U G32C A53G C70U | 6e-05 ± 1.4e-05
A53C U55G G66A | 0.00165 ± 0.00032
C34A G59A C70A | < 1e-05
A6U C8U A52U C67U C71U | < 1e-05
A15U U30C U31A | 0.0213 ± 0.0088
A15C G66U U69C | 4.52e-05 ± 1.5e-05
G7U G35U U54C G60A C67G C68A | 5.54e-05 ± 9.5e-06
A42G G51C G60C C68G | < 1e-05
C61U U65A C67U C70A | 5.06e-05 ± 2.1e-05
A12C A15U G62A | < 1e-05
A12C U45A C67G | 0.000527 ± 0.00016
G35A A52U A53G C70U | < 1e-05
G32U A39U C50A | < 1e-05
U31C A64C U65G | < 1e-05
A6C G40C C61U | < 1e-05
A39C U57A C67G | < 1e-05
A15G G29U A39G C67U | 0.000169 ± 5.3e-05
A33C G37U U57A G59U | < 1e-05
C34U U45G | < 1e-05
G7A A15G G29A A36G A52G | < 1e-05
G40U G66A C70U | 0.0016 ± 0.00053
U31C A42U U56C G66C | < 1e-05

Variants of: B1
Experiment: self-cleavage kobs at 10000 uM GlcN6P; higher = faster cleavage; RNA array
Conditions: with glucosamine-6-phosphate
Method in brief: as §1

Variant | self-cleavage kobs at 10000 uM GlcN6P [s⁻¹]
G13U A42C U47C U57C | < 1e-05
C34U U54G G63U | < 1e-05
A64G U65C | 0.000113 ± 1.6e-05
G13U A14G U47C | 0.000208 ± 5.4e-05
A14U G40C G66C | 0.00012 ± 2.4e-05
C11A U54A U55G | 0.000124 ± 1.8e-05
A39U G60A U65G | < 1e-05
C34U U45G | < 1e-05
